The values below come from paper doi:10.1101/062877.

Where two headings read alike, the source gives them in different places.

Holding throughout (test): single-molecule TIRF microscopy of live cells
In assay [1] the target is DNA-CAR (DNA-based chimeric antigen receptor; HA-tagged non-fluorescent version, pHR-DNA-CAR-IRES-puro) (UniProt P42081).
The target is the same in assay [2]. This is another data set of the same source.
The target is the same in assay [3]. This is another data set of the same source.

Sequence of ZAP70-GFP (P43403 whole entry): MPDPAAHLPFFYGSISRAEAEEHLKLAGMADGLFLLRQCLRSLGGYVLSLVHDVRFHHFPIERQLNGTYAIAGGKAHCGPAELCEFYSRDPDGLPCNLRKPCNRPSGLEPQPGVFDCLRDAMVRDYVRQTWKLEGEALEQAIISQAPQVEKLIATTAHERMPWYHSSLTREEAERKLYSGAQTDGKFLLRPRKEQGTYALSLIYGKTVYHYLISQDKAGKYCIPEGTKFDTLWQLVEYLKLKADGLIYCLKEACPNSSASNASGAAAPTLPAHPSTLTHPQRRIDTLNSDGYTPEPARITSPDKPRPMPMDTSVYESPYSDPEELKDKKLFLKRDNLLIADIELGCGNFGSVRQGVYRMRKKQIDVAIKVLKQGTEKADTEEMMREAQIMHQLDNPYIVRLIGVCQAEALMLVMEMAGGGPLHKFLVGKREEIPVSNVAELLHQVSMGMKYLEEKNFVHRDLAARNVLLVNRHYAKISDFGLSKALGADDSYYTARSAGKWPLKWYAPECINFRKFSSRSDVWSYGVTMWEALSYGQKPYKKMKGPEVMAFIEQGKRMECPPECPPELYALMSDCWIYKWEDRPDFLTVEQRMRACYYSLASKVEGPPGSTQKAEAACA

With “ZAP70-GFP (from UniProt P43403 1-619) (enzyme)”, in assay [1], the percent of receptor-ligand clusters of 3 or more ligands that recruit ZAP70-GFP amounted to 53% and the percent of single bound ligands that recruit ZAP70-GFP came to 2%. The percent of single bound ligand-receptors that recruit ZAP70-GFP in assay [2] was found to be 2.2%. Further, in assay [3], the duration of ZAP70-GFP recruitment at a single ligated receptor is less than 20 s, the half-life of the bound time on a single ligated receptor was found to be 10 s, the percent of receptor-ligand clusters of 3 or more ligands that recruit ZAP70-GFP is 83% and the percent of single bound ligand-receptors that recruit ZAP70-GFP was found to be 6.3%. Besides, the percent of single bound receptors that recruit ZAP70-GFP in assay [3] was determined as 20%.
